Results: patent US20170190778A1

Key:
[1] = biological target: TGFβ receptor on mink lung epithelial cells (MLEC-TGFβ, PAI-1 promoter luciferase reporter) (mink); test: cell-based or functional assay
[2] = biological target: TGFβ receptor II (TGFβRII) on IMR90 human lung fibroblasts (human) (UniProt P37173); test: cell-based or functional assay
TGFβ receptor II (TGFβRII) on IMR90 human lung fibroblasts (human), sequence (P37173 23-567): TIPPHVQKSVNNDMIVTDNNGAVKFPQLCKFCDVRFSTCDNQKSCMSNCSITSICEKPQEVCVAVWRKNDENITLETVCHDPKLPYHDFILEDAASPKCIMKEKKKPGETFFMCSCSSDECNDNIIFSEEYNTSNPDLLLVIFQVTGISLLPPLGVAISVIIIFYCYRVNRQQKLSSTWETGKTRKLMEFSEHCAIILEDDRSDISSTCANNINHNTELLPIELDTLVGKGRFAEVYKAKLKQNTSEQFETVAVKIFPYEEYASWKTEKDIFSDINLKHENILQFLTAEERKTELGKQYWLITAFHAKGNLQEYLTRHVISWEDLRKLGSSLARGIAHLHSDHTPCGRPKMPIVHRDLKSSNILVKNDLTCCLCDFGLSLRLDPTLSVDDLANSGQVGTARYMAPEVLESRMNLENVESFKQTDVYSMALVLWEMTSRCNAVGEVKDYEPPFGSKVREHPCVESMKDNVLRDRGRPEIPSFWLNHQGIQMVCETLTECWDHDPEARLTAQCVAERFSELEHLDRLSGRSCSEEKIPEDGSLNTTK

luciferase activity (PAI-1 promoter reporter in MLEC cells) [1] [µg/mL] | SMA and collagen protein expression in IMR90 cells (48 h) [2] [nM] | Smad3 phosphorylation in IMR90 cells (Western blot, 30 min) [2] [nM] | Substance
25 | 30 |  | C-terminal discoidin and carboxypeptidase domains of mouse ACLP (amino acids 374-1128, C-terminal myc-His tag) (from UniProt Q640N1 374-1128)
5 |  | 30 | N-terminal Tsp repeat domain of mouse ACLP (amino acids 26-373, C-terminal myc-His tag) (from UniProt Q640N1 26-373) (ligand)
